The record followed here is PMC11325815 (Journal of Hematology & Oncology, 2024).

The target in the assay is recombinant extracellular domain (ECD) of human IL1RAP (S21-E359) (Homo sapiens, UniProt Q9NPH3). Nature of the assay: SPR.
Chain of recombinant extracellular domain (ECD) of human IL1RAP (S21-E359) (Q9NPH3 21-359): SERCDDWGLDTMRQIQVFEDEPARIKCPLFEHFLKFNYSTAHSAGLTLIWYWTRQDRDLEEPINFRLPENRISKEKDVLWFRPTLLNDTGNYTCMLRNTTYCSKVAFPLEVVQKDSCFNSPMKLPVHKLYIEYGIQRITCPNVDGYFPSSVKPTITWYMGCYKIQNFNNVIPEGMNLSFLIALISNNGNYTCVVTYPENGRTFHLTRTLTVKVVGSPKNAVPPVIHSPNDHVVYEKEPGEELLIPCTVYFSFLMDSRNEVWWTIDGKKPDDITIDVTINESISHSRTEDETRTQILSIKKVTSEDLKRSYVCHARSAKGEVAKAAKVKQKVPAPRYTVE

B1: anti-IL1RAP-24 Fab (Fab, V domains shown)
VH: QVQLQQSGPELVRPGVSVKISCKGSGYTFTDYAMHWVKQSHGKGLEWIGIISTYSGNTKFHQKFKGKATMTVDKSSSTAYMELARLTSEDSAIYYCARQGTWYFDVWGAGTTVTVSS
VL: QIVLTQSPAIMSASPGEKVTMTCSASSTIIYIHWYQQKPGTSPKGWIYDTSKLASGVPARFSGSGSGTSYSLTISSMEAEDAATYYCHQRTSYPWTFGGGTKLEIK
As a reminder, the Kd is the free concentration of one partner at which half of the binding sites on the other are occupied at equilibrium, for simple one-to-one binding. As for B1, the Kd is 2.2 nM.
